Data: patent US20250276075A1, “METHODS OF TREATING AXL-EXPRESSING CANCERS WITH ANTI-AXL ANTIBODIES, ANTIBODY FRAGMENTS AND THEIR IMMUNOCONJUGATES” (BIOATLA, INC., priority 2020, published 2025)

Experiment: Phase 1 clinical study of BA3011: safety (adverse events, DLT, MTD, RP2D)
Format: in vivo, human
Source text: MTD evaluation will be based on the DLT-evaluable Population. The DLT-evaluable Population includes all patients enrolled in Phase 1 dose escalation who receive at least 1 full assigned dose of BA3011 and complete the safety follow-up through the DLT-evaluation period (defined as the time period from the first dose of BA3011 through 21 days post Dose 1) or experience any DLT during the DLT-evaluation period. Non-DLT-evaluable patients will be replaced. The safety evaluation will be based on the As-Treated Population. Adverse events (AEs) will be coded by Medical Dictionary for Regulatory Activities (MedDRA) and graded according to the NCI CTCAE v4.03, and the type, incidence, severity, and relationship to each IP will be summarized. If any associations of interest between AEs and baseline characteristics are observed, additional stratified results may be presented. All treatment-emergent AEs will be summarized by MedDRA system organ class and preferred term. Laboratory abnormalities with toxicity grades according to the NCI CTCAE will be summarized.
A DLT is defined as meeting 1 of the following criteria during the 21-day DLT evaluation period or a treatment-related toxicity of any grade requiring dose delay of 1 week or more between the first and second cycles: • Non-hematologic Toxicity • For non-hematologic toxicities, DLT will be defined as any National Cancer Institute (NCI) Common Terminology Criteria for Adverse Events (CTCAE) v4.03 (published 14 Jun. 2010) Grade 3 or greater toxicity at least possibly related to treatment, except for: • Grade 3 fatigue. • Grade 3 nausea and vomiting lasting less than 24 hours. • Grade 3 non-hematologic laboratory abnormalities that are asymptomatic and resolve to Grade 1 or baseline (if the patient entered the study with existing toxicity) within 14 days. • Grade 3 or 4 allergic or hypersensitivity reaction at first occurrence in the absence of prophylactic steroid that resolves in less than 6 hours with appropriate clinical intervention
• DLT for hematologic toxicity, using NCI CTCAE v4.03, will be defined as: • Grade 4 neutropenia lasting greater than 7 days. • Grade 3 or 4 febrile neutropenia. • Grade 4 platelet count (<25,000/mm3) at any time.
Study BA3011-001 was an ongoing, multi-center, open-label, Phase 1/2 first-in-human trial of BA3011.
In Phase 1 (NCT03425279), BA3011 was administered once (Q3W) or twice (2Q3W) every 3 weeks via intravenous (IV) infusion.

[1] = All TEAEs, All Grades, sarcoma patients, Phase 1
[2] = All TEAEs, Grade 3, sarcoma patients, Phase 1
[3] = All TEAEs, Grade 4, sarcoma patients, Phase 1
[4] = Related TEAEs, All Grades, sarcoma patients, Phase 1
[5] = Related TEAEs, Grade 3, sarcoma patients, Phase 1
[6] = Related TEAEs, Grade 4, sarcoma patients, Phase 1
[7] = Total, 26 sarcoma patients, Phase 1

B1: Mecbotamab vedotin (conjugate, chains of the INN, looked up)
VH: EVQLVQSGAEVKKPGATVKISCKVSGYSFWGATMNWIRQPPGKGLEWIGLIKPSNGGTSYNQKFKGRVTISADKSISTAYLQWSSLKASDTAMYYCAHGHYESYEAMDYWGQGTLVTVSS
VL: DIQMTQSPSSLSASVGDRVTITCKASQDVVSAVAWYQQKPGQAPRLLIYWQDTRHTGVPSRFSGSGSGTEFTLTISSLQPDDFATYYCQEHFSPPLTFGQGTKVEIK
modifications: MC-vc-PAB-MMAE conjugate
- Stomatitis, % [1]: (3.8) %
- Vomiting, % [1]: (23.9) %
- Anemia, % [2]: (7.7) %
- Aspartate aminotransferase increased, % [2]: (3.8) %
- Blood bilirubin increased, % [2]: (3.8) %
- Constipation, % [2]: (3.8) %
- Hypokalemia, % [2]: (11.5) %
- Hyponatremia, % [2]: (7.7) %
- Lymphocyte count decreased, % [2]: (3.8) %
- Nausea, % [2]: (3.8) %
- Neutrophil count decreased, % [2]: (15.4) %
- Patients with at least one TEAE, % [2]: (57.7) %
- Peripheral neuropathy, % [2]: (3.8) %
- Stomatitis, % [2]: (3.8) %
- Vomiting, % [2]: (3.8) %
- Neutrophil count decreased, % [3]: 3.8%
- Patients with at least one TEAE, % [3]: 7.7%
- on-target toxicity to normal AXL-expressing tissue (Phase 1): No clinically meaningful on-target toxicity was observed
- rate of constipation (Phase 1): low
- dose-limiting toxicities (Phase 1, highest dose tested): limited to monomethyl auristatin E (MMAE) conjugate-associated toxicity at the highest dose tested, including reversible neutropenia
- SAE related to treatment (grade 2 hepatic encephalopathy) (Phase 1 sarcoma patients): 1 patient
- patients with grade 3 related TEAEs (Phase 1 sarcoma patients): Eleven
- patients with grade 4 neutropenia (Phase 1 sarcoma patients): 1 patient
- treatment-emergent adverse events (TEAEs) leading to death (Phase 1 sarcoma patients): no treatment-emergent adverse events (TEAEs) leading to death
- treatment-related TEAEs leading to treatment discontinuation (Phase 1 sarcoma patients): 2 (7.7%) patients
- Alanine aminotransferase increased, % [4]: (38.5) %
- Alopecia, % [4]: (23.1) %
- Anemia, % [4]: (3.8) %
- Arthralgia, % [4]: (3.8) %
- Aspartate aminotransferase increased, % [4]: (42.3) %
- Blood alkaline phosphatase increased, % [4]: (19.2) %
- Blood bilirubin increased, % [4]: (3.8) %
- Bone pain, % [4]: (3.8) %
- Constipation, % [4]: (15.4) %
- Decreased appetite, % [4]: (15.4) %
- Diarrhea, % [4]: (19.2) %
- Fatigue, % [4]: (42.3) %
- Hypokalemia, % [4]: (15.4) %
- Hyponatremia, % [4]: (3.8) %
- Lymphocyte count decreased, % [4]: (7.7) %
- Nausea, % [4]: (38.5) %
- Neutrophil count decreased, % [4]: (26.9) %
- Patients with at least one TEAE, % [4]: (84.6) %
- Peripheral neuropathy, % [4]: (15.4) %
- Stomatitis, % [4]: (3.8) %
- Vomiting, % [4]: (19.2) %
- Anemia, % [5]: (3.8) %
- Aspartate aminotransferase increased, % [5]: (3.8) %
- Blood bilirubin increased, % [5]: (3.8) %
- Hypokalemia, % [5]: (11.5) %
- Hyponatremia, % [5]: (3.8) %
- Lymphocyte count decreased, % [5]: (3.8) %
- Nausea, % [5]: (3.8) %
- Neutrophil count decreased, % [5]: (15.4) %
- Patients with at least one TEAE, % [5]: (42.3) %
- Peripheral neuropathy, % [5]: (3.8) %
- Stomatitis, % [5]: (3.8) %
- Vomiting, % [5]: (3.8) %
- Neutrophil count decreased, % [6]: 3.8%
- Patients with at least one TEAE, % [6]: 3.8%
- Any TEAE, % of patients [7]: (100.0)%
- Any TEAE, no. of patients [7]: 26
- Any related serious TEAE, % of patients [7]: (3.8%)
- Any related serious TEAE, no. of patients [7]: 1
- Any serious TEAE, % of patients [7]: (34.6%)
- Any serious TEAE, no. of patients [7]: 9
- Related TEAE leading to treatment discontinuation, no. of patients [7]: 2
- Related TEAEs with CTCAE grade 3 or 4, % of patients [7]: (46.2%)
- Related TEAEs with CTCAE grade 3 or 4, no. of patients [7]: 12
- TEAE leading to treatment discontinuation, % of patients [7]: (7.7%)
- TEAE leading to treatment discontinuation, no. of patients [7]: 2
- TEAE with CTCAE grade 3 or 4, % of patients [7]: (65.4%)
- TEAE with CTCAE grade 3 or 4, no. of patients [7]: 17
- TEAEs leading to death, no. of patients [7]: 0
- transient grade 1-2 liver enzyme elevations (seen during cycle 1 treatment): generally did not re-occur upon re-treatment
- creatinine levels (throughout treatment): generally unchanged throughout treatment
